This note sets out measurements from article PMC2951910, “Signal Transduction Protein Array Analysis Links LRRK2 to Ste20 Kinases and PKC Zeta That Modulate Neuronal Plasticity” (PLoS ONE, 2010).

Experiment [1] addresses T1, GST-tagged LRRK2(G2019S) (amino acids 970-2527) (human, UniProt Q5S007 970-2527, G2019S, autophosphorylated (10 uM cold ATP, 1 h, 30 C) before the binding arrays; sites not stated).
T1 construct: leucine-rich repeat kinase 2 (LRRK2), human, amino acids 970-2527, with the Parkinson's disease-linked mutation G2019S; In the 33P arrays the kinase was not autophosphorylated beforehand, but ATP was present during the incubation; also called recombinant LRRK2(G2019S); leucine-rich repeat kinase 2; source: bought: Invitrogen; not shown: GST, N-terminal, kept
Nature of the experiment: peptide or protein array; BCCP-tagged full-length human proteins held on streptavidin-coated slides; overlaid with autophosphorylated GST-LRRK2(G2019S) (970-2527) or recombinant GST with cold ATP for 1 h at 30 C; washed in buffer with 0.5% SDS; detected with an Alexa 488-conjugated anti-GST antibody. The note with it: both partners purified.

Experiment [2] has as its target T2, kinase-inactive GST-tagged LRRK2(D1994A) (970-2527) (human, UniProt Q5S007 970-2527, D1994A).
T2 construct: also called kinase-dead LRRK2(D1994A); source: bought: Invitrogen
Nature of the experiment: peptide or protein array; BCCP-tagged full-length human proteins held on streptavidin-coated slides, pre-incubated with 100 uM cold ATP; overlaid with 130 nM GST-LRRK2 (G2019S or D1994A) with 10 uM ATP and [gamma-33P]ATP for 1 h at 30 C; washed in 0.5% SDS; radioactive signal on the spots read on phosphoscreens; buffer only as control. The note with it: both partners purified.

T1 sequence (Q5S007 970-2527 G2019S): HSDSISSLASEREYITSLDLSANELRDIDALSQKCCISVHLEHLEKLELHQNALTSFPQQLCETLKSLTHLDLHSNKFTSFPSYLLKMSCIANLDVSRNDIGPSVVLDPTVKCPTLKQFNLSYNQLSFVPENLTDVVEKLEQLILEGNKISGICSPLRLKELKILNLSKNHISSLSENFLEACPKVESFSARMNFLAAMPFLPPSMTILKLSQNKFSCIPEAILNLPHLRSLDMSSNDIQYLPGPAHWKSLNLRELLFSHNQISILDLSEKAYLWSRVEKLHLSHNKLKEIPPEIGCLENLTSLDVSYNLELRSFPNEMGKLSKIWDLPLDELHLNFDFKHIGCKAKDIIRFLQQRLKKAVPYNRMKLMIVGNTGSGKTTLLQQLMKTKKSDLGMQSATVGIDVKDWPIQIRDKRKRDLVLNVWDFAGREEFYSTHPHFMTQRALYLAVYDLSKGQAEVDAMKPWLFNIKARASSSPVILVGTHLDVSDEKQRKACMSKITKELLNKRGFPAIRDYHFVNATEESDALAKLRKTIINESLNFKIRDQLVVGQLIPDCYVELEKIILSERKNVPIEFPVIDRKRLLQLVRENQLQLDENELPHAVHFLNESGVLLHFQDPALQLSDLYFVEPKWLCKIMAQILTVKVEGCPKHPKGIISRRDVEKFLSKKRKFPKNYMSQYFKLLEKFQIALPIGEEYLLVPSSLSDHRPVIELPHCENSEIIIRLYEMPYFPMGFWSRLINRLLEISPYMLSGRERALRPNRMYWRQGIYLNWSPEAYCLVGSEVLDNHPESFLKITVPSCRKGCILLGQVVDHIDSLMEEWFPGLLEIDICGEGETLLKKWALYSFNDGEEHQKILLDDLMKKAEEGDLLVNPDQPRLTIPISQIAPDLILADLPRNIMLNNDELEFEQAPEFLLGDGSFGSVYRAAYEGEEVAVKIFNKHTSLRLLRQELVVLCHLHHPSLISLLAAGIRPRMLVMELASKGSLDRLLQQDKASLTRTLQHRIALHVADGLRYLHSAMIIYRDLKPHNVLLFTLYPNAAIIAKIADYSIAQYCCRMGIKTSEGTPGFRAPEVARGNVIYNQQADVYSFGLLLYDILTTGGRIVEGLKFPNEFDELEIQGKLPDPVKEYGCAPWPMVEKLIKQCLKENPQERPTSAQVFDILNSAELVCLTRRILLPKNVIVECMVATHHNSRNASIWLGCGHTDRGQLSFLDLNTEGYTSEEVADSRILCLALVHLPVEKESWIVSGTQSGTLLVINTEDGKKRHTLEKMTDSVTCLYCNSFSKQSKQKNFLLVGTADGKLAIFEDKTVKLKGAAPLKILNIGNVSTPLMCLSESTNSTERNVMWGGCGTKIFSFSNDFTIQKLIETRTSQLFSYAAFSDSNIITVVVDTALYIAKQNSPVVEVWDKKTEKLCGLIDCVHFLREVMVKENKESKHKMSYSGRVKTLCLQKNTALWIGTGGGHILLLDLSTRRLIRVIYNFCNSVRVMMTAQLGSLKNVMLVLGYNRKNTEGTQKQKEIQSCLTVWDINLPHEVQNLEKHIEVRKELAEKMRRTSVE
T2 sequence (Q5S007 970-2527 D1994A): as the sequence (Q5S007 970-2527 G2019S) above, with D1025A, S1050G counted along it

B1: Protein kinase C, zeta (PRKCZ), arrayed (enzyme, human, UniProt Q05513 1-592, looked up)
chain: MPSRTGPKMEGSGGRVRLKAHYGGDIFITSVDAATTFEELCEEVRDMCRLHQQHPLTLKWVDSEGDPCTVSSQMELEEAFRLARQCRDEGLIIHVFPSTPEQPGLPCPGEDKSIYRRGARRWRKLYRANGHLFQAKRFNRRAYCGQCSERIWGLARQGYRCINCKLLVHKRCHGLVPLTCRKHMDSVMPSQEPPVDDKNEDADLPSEETDGIAYISSSRKHDSIKDDSEDLKPVIDGMDGIKISQGLGLQDFDLIRVIGRGSYAKVLLVRLKKNDQIYAMKVVKKELVHDDEDIDWVQTEKHVFEQASSNPFLVGLHSCFQTTSRLFLVIEYVNGGDLMFHMQRQRKLPEEHARFYAAEICIALNFLHERGIIYRDLKLDNVLLDADGHIKLTDYGMCKEGLGPGDTTSTFCGTPNYIAPEILRGEEYGFSVDWWALGVLMFEMMAGRSPFDIITDNPDMNTEDYLFQVILEKPIRIPRFLSVKASHVLKGFLNKDPKERLGCRPQTGFSDIKSHAFFRSIDWDLLEKKQALPPFQPQITDDYGLDNFDTQFTSEPVQLTPDDEDAIKRIDQSEFEGFEYINPLLLSTEESV
modifications: biotin on the biotin-carboxyl carrier protein tag
notes: protein kinase C zeta (PRKCZ), human, full length, spotted on the array; Held on streptavidin-coated glass slides by the biotinylated tag; also called PKC zeta; source: bought: Sigma Panorama Human Protein Function Array - Signal Transduction; expressed in insect cells
For B1, the binding result in experiment [1] and in experiment [2] was “binds” throughout.

B2: TNF receptor-associated factor 2, transcript variant 1 (TRAF2), arrayed (natural protein, human, UniProt Q12933 1-501, looked up)
chain: MAAASVTPPGSLELLQPGFSKTLLGTKLEAKYLCSACRNVLRRPFQAQCGHRYCSFCLASILSSGPQNCAACVHEGIYEEGISILESSSAFPDNAARREVESLPAVCPSDGCTWKGTLKEYESCHEGRCPLMLTECPACKGLVRLGEKERHLEHECPERSLSCRHCRAPCCGADVKAHHEVCPKFPLTCDGCGKKKIPREKFQDHVKTCGKCRVPCRFHAIGCLETVEGEKQQEHEVQWLREHLAMLLSSVLEAKPLLGDQSHAGSELLQRCESLEKKTATFENIVCVLNREVERVAMTAEACSRQHRLDQDKIEALSSKVQQLERSIGLKDLAMADLEQKVLEMEASTYDGVFIWKISDFARKRQEAVAGRIPAIFSPAFYTSRYGYKMCLRIYLNGDGTGRGTHLSLFFVVMKGPNDALLRWPFNQKVTLMLLDQNNREHVIDAFRPDVTSSSFQRPVNDMNIASGCPLFCPVSKMEAKNSYVRDDAIFIKAIVDLTGL
modifications: biotin on the biotin-carboxyl carrier protein tag
notes: TNF receptor-associated factor 2 (TRAF2), human, full length, spotted on the array; Held on streptavidin-coated glass slides by the biotinylated tag; also called tumor necrosis factor receptor-associated factor 2; source: bought: Sigma Panorama Human Protein Function Array - Signal Transduction; expressed in insect cells
In the case of B2, in experiment [1], the binding result is on record as “binds”.

B3: Serine/threonine kinase 25 (STE20 homolog, yeast) (STK25), arrayed (enzyme)
chain: not shown
modifications: biotin on the biotin-carboxyl carrier protein tag
notes: serine/threonine kinase 25 (STK25), human, full length, spotted on the array; Held on streptavidin-coated glass slides by the biotinylated tag; The array was pre-incubated with 100 uM cold ATP in the substrate arrays; source: bought: Sigma Panorama Human Protein Function Array - Signal Transduction; expressed in insect cells
With B3, in experiment [1], the binding result is listed as “binds”.
